Results taken from patent publication US20130280318A1, “Tissue Scaffolds for Controlled Release of Active Agents” (The Trustees of Columbia University in the City of New York, priority 2010, published 2013).

Test system: Chondrocytes
Assay: Chondrocyte growth on scaffolds (total DNA, Picogreen)
Type: cell-based, bovine
Conditions: TGF-β3 released from tissue scaffold
Method: Chondrocytes enzymatically digested from bovine calves (6×10^4 cells/cm^2) were cultured on scaffolds in serum-free ITS+ media. Experimental group included PLGA-TGFβ3 scaffolds, while cells cultured on PLGA and on PLGA with exogenous TGF-β3 (1 ng/mL) served as controls. Viability was evaluated with confocal microscopy (n=3).
Total DNA (n=6) was quantified by Picogreen Assay. Glycosaminoglycan (GAG) and collagen syntheses (n=6) were assessed by dimethylmethylene blue (DMMB) and Sircol assays, respectively. Gene expressions (Col I, II, and X) were analyzed by RT-PCR (n=4).

B1: transforming growth factor-beta 3 (protein, UniProt P10600 301-412, looked up)
Transforming growth factor …: ALDTNYCFRNLEENCCVRPLYIDFRQDLGWKWVHEPKGYYANFCSGPCPYLRSADTTHSTVLGLYNTLNPEASASPCCVPQDLEPLTILYYVGRTPKVEQLSNMVVKSCKCS
modifications: Transforming growth factor beta-3
- bioactivity of released TGF-β3 (chondrocyte proliferation and biosynthesis): bioactive
